Where two headings read alike, the source gives them in different places.

With SYK: SYK (K375R, K517R), the other entry runs as follows: (ubiquitination at K375) “changes”; (ubiquitination at K517) “changes”.
On to SYK: SYK (Y525F, Y526F), for which the other result was “no change” (phosphorylation at Y525) and “no change” (phosphorylation at Y526).

The values are drawn from publication PMC8342987.
